The source of these data is publication PMC7367873, “Dissecting the sequence determinants for dephosphorylation by the catalytic subunits of phosphatases PP1 and PP2A” (Nature Communications, 2020).

The target of the assay is T1, PP2Ac (Homo sapiens, UniProt P67775).
T1 construct: purchased Cayman Chemical 10011237
Description: Phosphoproteome dephosphorylation assay of HeLa Kyoto lysate with recombinant PP2Ac (TMT phosphoproteomics). It counts as biochemical. The following applies: 1 µM recombinant phosphatase, 1 h at 30 °C, 20 nM Calyculin A, three replicates. On the procedure:
For phosphoproteomics, HeLa Kyoto cells were incubated with 20 nM Calyculin A (CST, #9902) for 10–15 min. This time point was determined empirically to yield maximal phosphatase inhibition without cells showing pleiotropic effects. Subsequently, cells were placed on ice and washed twice with cold PBS and scraped in lysis buffer (100 mM NaCl, 10 mM Tris, 0.1% IGEPAL, 1 mM EDTA, 1 mM EGTA, 20 nM Calyculin A, 1x cOmplete Mini protease inhibitor cocktail (Sigma), 1 mM DTT, 1 mM MnCl2, pH 7.5). After 10 pushes through an injection needle (21 G, BD), lysate was cleared from the insoluble fraction by centrifugation (10 min, 10^4 rcf, 4 °C). Protein concentration was then determined by a Bradford Assay and equal amounts of 1 mg total protein were incubated with recombinant PP1c/PP2Ac or buffer at a final phosphatase concentration of 1 µM in a total volume of 200 µL for 1 h at 30 °C. Lysates were then immediately placed on ice. PhosStop […] (Roche) was added and proteins were denatured by adding urea to a final concentration of 8 M taking into account the volume increase. Samples were then snap-frozen in liquid nitrogen for storage and subsequent MS analysis.
Treated lysates were reduced (10 mM DTT, 30 °C, 30 min) and alkylated (50 mM chloroacetamide, room temperature, 30 min, in the dark), and then diluted to 1.3 M urea using 40 mM Tris-HCl (pH 7.6). […]

T1 sequence (P67775 1-308 limits assumed): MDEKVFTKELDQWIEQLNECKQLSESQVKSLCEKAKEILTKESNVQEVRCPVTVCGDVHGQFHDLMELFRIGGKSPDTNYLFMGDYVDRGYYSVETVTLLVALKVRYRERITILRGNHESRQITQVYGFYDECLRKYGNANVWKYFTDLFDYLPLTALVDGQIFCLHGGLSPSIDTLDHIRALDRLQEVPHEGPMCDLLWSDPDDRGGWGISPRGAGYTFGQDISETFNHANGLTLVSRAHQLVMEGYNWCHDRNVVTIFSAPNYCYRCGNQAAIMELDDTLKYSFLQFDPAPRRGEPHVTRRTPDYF

As to “PP2Ac: His-tagged recombinant PPP2CA ΔL309, purchased from Cayman Chemical”, the “number of class I p-sites dephosphorylated by PP2A” value was 1840 p-sites.
